Results published in the supplement of paper PMC10724198.
± gives the standard deviation of the averaged measurements.

Test system: Saccharomyces cerevisiae
Assay: protein stability index of tFT-peptide fusion (C-terminal peptide) (PSI (0-1 scale)); higher = more stable (slower turnover)
Conditions: genetic background: wild type; temperature: 30 C
Method: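 Multiplexed protein stability (MPS) profiling in S. cerevisiae. Random 12-aa peptides (tFT-X12 library) are fused to the C-terminus of a sfGFP-mCherry tandem fluorescent timer, after mCherry and a GGGS linker. Cells are FACS-sorted into 8 mCherry/sfGFP bins and deep-sequenced. The protein stability index (PSI) is the read-weighted bin average, scaled from 0 (unstable) to 1 (stable). Only peptides with >10 reads are reported; cells were grown at 30 °C in SC-His with glucose.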
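Also: PSI is a weighted mean of sequencing reads over stability bins, variants kept only with over 10 reads, mCherry proximal and sfGFP distal, peptide attached via GGGS linker.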

Row | Sequence | protein stability index
1 | WGGGGGGDCVGA | 0.6732 ± 0.0029
2 | PPPDPPRHGRPE | 0.684 ± 0.035
3 | GIRFGLVCYPNF | 0.6537 ± 0.0025
4 | PLSSLSLPTPPT | 0.707 ± 0.062
5 | SWEIGHLLPGTD | 0.6671 ± 0.0048
6 | SRPRPPVTPPSE | 0.648 ± 0.054
7 | CEEQQPGFKPLL | 0.706 ± 0.04
8 | AYSNVFLDPTPV | 0.69 ± 0.0097
9 | RNKTNYIQKLTK | 0.665 ± 0.027
10 | GVSIGVLTGAWR | 0.646 ± 0.0015
11 | GLPRAANMKGSE | 0.652 ± 0.011
12 | GFMSFAVTCGLL | 0.688 ± 0.11
13 | RNRRKEMKKGRE | 0.631 ± 0.034
14 | SVNHVDIANSIL | 0.647 ± 0.011
15 | WLKVRINFYKRK | 0.52 ± 0.038
16 | PTIGTLPTVGDD | 0.656 ± 0.02
17 | GFCCLGGVRPSV | 0.655 ± 0.027
18 | PTATMLFLTRTG | 0.702 ± 0.043
19 | HNRADKLQTTIE | 0.69 ± 0.033
20 | GGDVCGWWCWRG | 0.645 ± 0.098
21 | SCLRFCSFGSPF | 0.757 ± 0.12
22 | TPSPAPPTPFTP | 0.659 ± 0.023
23 | AGLGHVPGEHSV | 0.613 ± 0.033
24 | TAKQDSGVSTPV | 0.732 ± 0.12
25 | GGMRGGYRGRCV | 0.679 ± 0.039

Row | Sequence | protein stability index
26 | AGGGKGGGGGEK | 0.649 ± 0.029
27 | ACWVAKTGGSPV | 0.654 ± 0.012
28 | MGGKGRGGRREI | 0.666 ± 0.041
29 | KSKKDQKKNHKK | 0.712 ± 0.0076
30 | VSGPTPAPLSSL | 0.695 ± 0.028
31 | SLRSGFVSHFSP | 0.689 ± 0.11
32 | QSSWVGRGVRGG | 0.647 ± 0.014
33 | PPPAPLPPRSSS | 0.638 ± 0.086
34 | NKKKPKRTGKTQ | 0.674 ± 0.025
35 | PPWPPYPRPPSS | 0.679 ± 0.053
36 | ILGGVSPSAFVI | 0.664 ± 0.022
37 | CFLSAVFISSSL | 0.601 ± 0.045
38 | PPHFPLPLPPTP | 0.706 ± 0.024
39 | AHGAGCGGRRVA | 0.726 ± 0.023
40 | VYHMFHLGPSFD | 0.7051 ± 0.0015
41 | HVRSPLRRVEKF | 0.6988 ± 0.006
42 | SLRLPPPTDTDS | 0.681 ± 0.03
43 | LPHTVITVPDPQ | 0.628 ± 0.065
44 | PPPPHPPPSLRA | 0.67716 ± 6e-05
45 | APKYPIQEWIKL | 0.594 ± 0.031
46 | GVVGLCLLGLGR | 0.701 ± 0.024
47 | VCLPPPPLPPSC | 0.692 ± 0.041
48 | FPTIGLSCSFPH | 0.676 ± 0.042
49 | ILHGRSGLRELL | 0.688 ± 0.023
50 | PPPPPPPHPPHL | 0.728 ± 0.031

Row | Sequence | protein stability index
51 | KKTYQQKIEEVV | 0.782 ± 0.14
52 | GYPSLYCLSVFM | 0.6155 ± 0.0058
53 | GEGGGAGGLEWG | 0.687 ± 0.081
54 | VGCGGGEFSLFG | 0.727 ± 0.034
55 | CINDSEYHSTMF | 0.741 ± 0.043
56 | GGRGVGVVLGVC | 0.5219 ± 0.00031
57 | LDSRSELGRGLK | 0.714 ± 0.018
58 | IERCGIVKEVKG | 0.74 ± 0.012
59 | GGLGREKLGGWR | 0.65 ± 0.091
60 | FWECEYVIDDVD | 0.69053 ± 0.00035
61 | YPSRSPFLSLSC | 0.683 ± 0.028
62 | ASVLFILAIPDL | 0.565 ± 0.039
63 | FDRAVRPSCLLL | 0.6892 ± 0.0062
64 | SPLLRSRPPPPI | 0.749 ± 0.016
65 | PSSWPPPPPPLP | 0.614 ± 0.022
66 | VGEGGGEVMGEA | 0.712 ± 0.085
67 | HVTGFVQRYLCH | 0.711 ± 0.092
68 | YGVEWGAESNLY | 0.8019 ± 0.0068
69 | FPISPSQSQSLP | 0.724 ± 0.076
70 | SGFLLVLRRPRE | 0.655 ± 0.05
71 | RYFCPVLGPVNF | 0.652 ± 0.046
72 | PRPLPVCTDVHD | 0.642 ± 0.019
73 | INCDIIHRRKKG | 0.6462 ± 0.0042
74 | WVLRRVGTVVYL | 0.585 ± 0.018
75 | HAPRSPCLPFPP | 0.687 ± 0.047

Row | Sequence | protein stability index
76 | DFSPSPWQFTCW | 0.692 ± 0.071
77 | AYCVPPAFPFPL | 0.627 ± 0.044
78 | STLRGTTESERK | 0.665 ± 0.057
79 | KHRSIRPYLKND | 0.72 ± 0.037
80 | CVCGRFGGELGV | 0.653 ± 0.1
81 | RRPSSCSPLPLY | 0.695 ± 0.03
82 | RGWWVRGGVLWC | 0.677 ± 0.048
83 | CSLWVLKLFLGV | 0.544 ± 0.012
84 | TTTQIIRISKSR | 0.673 ± 0.044
85 | WGGRNWDGRGCG | 0.612 ± 0.068
86 | DIIGMPLLMKKK | 0.693 ± 0.03
87 | RLLSSPLHPPLP | 0.701 ± 0.018
88 | GRKWRTSCQCVS | 0.586 ± 0.026
89 | SPGRPGLGGGAW | 0.776 ± 0.26
90 | GSRRSGITSYAN | 0.687 ± 0.011
91 | AAEPGGGTALRG | 0.637 ± 0.029
92 | LSRSSQPLPPPH | 0.7306 ± 0.0021
93 | VGLVVVRTMGPC | 0.6463 ± 0.00079
94 | PPPVAPRSPAHL | 0.713 ± 0.074
95 | PLGPRFLPLVLP | 0.682 ± 0.021
96 | SVSMEGCVSVRG | 0.7009 ± 0.0036
97 | AIKGIYPRCYFI | 0.697 ± 0.0073
98 | PPTPSPATSPPP | 0.713 ± 0.034
99 | SQLRSSTSARYV | 0.692 ± 0.14
100 | PSVAPFPLAPFS | 0.71 ± 0.066

Row | Sequence | protein stability index
101 | DNARCKSPRSLN | 0.621 ± 0.092
102 | DRRRGVGESSFG | 0.703 ± 0.025
103 | VPLPLHLPPPLP | 0.863 ± 0.12
104 | RFARQSNTFSQS | 0.659 ± 0.013
105 | FVSTSFPPWFSL | 0.684 ± 0.019
106 | RGFVVGGGGWLG | 0.706 ± 0.051
107 | HRDRPYTPLSRF | 0.722 ± 0.13
108 | QKKIKNKRQHRT | 0.795 ± 0.11
109 | PPSVLLPLACPP | 0.677 ± 0.008
110 | SPSPAPPTRSPS | 0.696 ± 0.023
111 | LRLPSPLPSPPS | 0.6283 ± 0.0034
112 | SCFEFGALSSPI | 0.753 ± 0.034
113 | NCPIQEPVSAIY | 0.661 ± 0.007
114 | SVYCVLSRGNRL | 0.687 ± 0.1
115 | GTDVFTQAVRNC | 0.641 ± 0.019
116 | RIKRTMNEKIRK | 0.68 ± 0.0041
117 | VFTFGAGFGARL | 0.801 ± 0.022
118 | GLSLLVDLNVWF | 0.569 ± 0.034
119 | PPRPPLHPLRLL | 0.6651 ± 0.0013
120 | SPPRPPPSPTPL | 0.771 ± 0.033
121 | KKKNTRKTTNIK | 0.708 ± 0.026
122 | TAMNNGNSIHKL | 0.682 ± 0.041
123 | CRVVRPSLEPQV | 0.697 ± 0.02
124 | TFLRGSILLVSP | 0.617 ± 0.059
125 | QTYQQSVKNRDD | 0.666 ± 0.061

Row | Sequence | protein stability index
126 | HSPASLPHLSGK | 0.728 ± 0.063
127 | MNQELRNCKGNG | 0.6259 ± 0.0034
128 | SGHRPPRVAVDS | 0.66 ± 0.044
129 | GVYVGWFMRSGG | 0.678 ± 0.015
130 | LYSPLLCRLPFP | 0.666 ± 0.045
131 | WTFPWICFLGFG | 0.589 ± 0.029
132 | EPATEGDSREHW | 0.708 ± 0.024
133 | PFFPVALPFPHL | 0.7 ± 0.021
134 | LLPALPPRCISF | 0.7343 ± 0.005
135 | VALSFYVLRRVP | 0.594 ± 0.015
136 | SVSLVQRSVCLD | 0.71 ± 0.021
137 | YYGCGAFGFSVR | 0.695 ± 0.014
138 | GGCSLRWARCRW | 0.686 ± 0.078
139 | RVPLFPIKMGLG | 0.591 ± 0.035
140 | SGLRQGRHVYPA | 0.682 ± 0.011
141 | TPPPFRLPAPSL | 0.71 ± 0.037
142 | LAPALSHSPPLT | 0.715 ± 0.078
143 | VKTNPEGDGKQE | 0.671 ± 0.021
144 | RNIRINKKVKDI | 0.594 ± 0.032
145 | TTKKMVRIVSTV | 0.571 ± 0.052
146 | FVKEGRVGTARS | 0.687 ± 0.099
147 | LLPPAPLPPSLG | 0.722 ± 0.016
148 | VGVVRAGWGGAV | 0.65 ± 0.059
149 | IGLTVICHFMNV | 0.576 ± 0.05
150 | FRGGCDRIRYRM | 0.696 ± 0.0089

Row | Sequence | protein stability index
151 | TPMDVEVPIAPI | 0.753 ± 0.063
152 | PCLASHTVDSLP | 0.665 ± 0.013
153 | DNGVLVFLPVLD | 0.6791 ± 0.0066
154 | VNRYSKETDAVF | 0.6719 ± 0.0043
155 | PLPLPSTALPPS | 0.632 ± 0.063
156 | VGVWTGWDVDCH | 0.742 ± 0.076
157 | FGFGYAVSFLVG | 0.6 ± 0.081
158 | FFSFVVPCFFFC | 0.513 ± 0.022
159 | TLATHCDVHFTR | 0.734 ± 0.077
160 | LSSLLFSPLPPS | 0.7593 ± 0.0019
161 | GGGVRWRVGRGG | 0.686 ± 0.0082
162 | RPRTSLFPCSLP | 0.711 ± 0.081
163 | PPPPPPPPPCSP | 0.7052 ± 0.0024
164 | TPNYPLHPTKKI | 0.681 ± 0.0084
165 | EIEYVEPSIPET | 0.702 ± 0.046
166 | PSDSRSTPPTPD | 0.698 ± 0.033
167 | HLSCVSVSVRGS | 0.629 ± 0.015
168 | RLSCFLVWFPFW | 0.5924 ± 0.0021
169 | INGYRYHTVNIK | 0.688 ± 0.03
170 | PHPPLPPPPYLL | 0.667 ± 0.016
171 | GDSWVVRSGVWV | 0.734 ± 0.13
172 | SPSSTSPAPFPL | 0.672 ± 0.14
173 | PAPPPPRRPLPP | 0.657 ± 0.0086
174 | SSPPTHAPPLPP | 0.688 ± 0.017
175 | GGMDEVFRAHGP | 0.712 ± 0.018

Row | Sequence | protein stability index
176 | SAACQRWGYLRV | 0.68781 ± 0.00045
177 | FSLFSSPPSLFC | 0.672 ± 0.03
178 | APARTTPRLPFA | 0.724 ± 0.069
179 | SPLSPPPPRLSA | 0.723 ± 0.061
180 | SPAPRAPRGICL | 0.706 ± 0.017
181 | FSSPLLLFHLPV | 0.663 ± 0.04
182 | GRQILMLGYMVA | 0.548 ± 0.012
183 | PPLPPHPPPGQQ | 0.697 ± 0.017
184 | RVRASGIGRFVE | 0.625 ± 0.033
185 | SVSSSVGRGLRV | 0.711 ± 0.014
186 | SQTEAGSICTLP | 0.676 ± 0.05
187 | FFIGFGGVAGGG | 0.695 ± 0.01
188 | PPPLTPSPPPPP | 0.663 ± 0.021
189 | VLFCFAHSASFL | 0.536 ± 0.066
190 | PPPLPRSPPPPF | 0.74 ± 0.021
191 | KKKFNNFIKIIH | 0.631 ± 0.027
192 | IICSKLHSPLVV | 0.509 ± 0.031
193 | TPPPSSLVIFFI | 0.675 ± 0.11
194 | LQFSTSMGVLMV | 0.591 ± 0.01
195 | SFPLSPAFPSFL | 0.744 ± 0.025
196 | RGHLPPIGLTRH | 0.675 ± 0.013
